The source of these data is US20250277018A1 (published 2025).

One experiment has as its target Human serum albumin. The experiment can be described thus: ELISA; pH 7.4. For orientation: ELISA stands for enzyme-linked immunosorbent assay.
The next experiment deals with 4A01v5. Kind of experiment: ELISA.
The target of a further experiment is 4A01v4. The experiment can be described thus: ELISA.
The target in another experiment is 4A01v3. The experiment can be described thus: ELISA.
The next experiment addresses 4A01v6. Kind of experiment: ELISA.
The target of the next experiment is 4A01v1. The experiment can be described thus: ELISA.
In another experiment the target is 4A01v3-7. The experiment can be described thus: ELISA.
In a further experiment the target is 4A01v3-8. The experiment can be described thus: ELISA.
The next experiment deals with 4A01v3-3. Kind of experiment: ELISA.
The target of another experiment is 4A01v3-4. The experiment can be described thus: ELISA.
The target of a further experiment is 4A01v9. Kind of experiment: ELISA.
A further experiment addresses 4A01v3-1. The experiment can be described thus: ELISA.
The target of a further experiment is 4A01v3-5. The experiment can be described thus: ELISA.
Another experiment has as its target T1, Rat serum albumin.
T1 chain: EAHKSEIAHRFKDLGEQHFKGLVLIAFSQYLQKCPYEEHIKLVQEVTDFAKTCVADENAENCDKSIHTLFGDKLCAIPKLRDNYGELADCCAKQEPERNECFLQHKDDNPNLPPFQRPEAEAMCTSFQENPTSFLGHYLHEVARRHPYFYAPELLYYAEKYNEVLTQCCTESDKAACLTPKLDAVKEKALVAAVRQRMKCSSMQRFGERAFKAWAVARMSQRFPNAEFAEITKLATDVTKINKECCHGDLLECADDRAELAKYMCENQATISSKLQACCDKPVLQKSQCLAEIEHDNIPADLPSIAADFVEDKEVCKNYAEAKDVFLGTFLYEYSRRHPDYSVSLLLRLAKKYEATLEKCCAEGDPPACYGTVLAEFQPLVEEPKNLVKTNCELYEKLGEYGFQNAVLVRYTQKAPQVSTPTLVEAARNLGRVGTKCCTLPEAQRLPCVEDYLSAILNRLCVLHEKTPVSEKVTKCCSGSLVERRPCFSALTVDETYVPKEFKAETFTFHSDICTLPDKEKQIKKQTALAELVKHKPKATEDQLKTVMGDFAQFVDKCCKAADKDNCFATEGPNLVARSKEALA
Kind of experiment: ELISA.

The target of another experiment is Murine serum albumin. Kind of experiment: ELISA.
Experiment [1] concerns the target T2, Cynomolgus monkey serum albumin.
T2 chain: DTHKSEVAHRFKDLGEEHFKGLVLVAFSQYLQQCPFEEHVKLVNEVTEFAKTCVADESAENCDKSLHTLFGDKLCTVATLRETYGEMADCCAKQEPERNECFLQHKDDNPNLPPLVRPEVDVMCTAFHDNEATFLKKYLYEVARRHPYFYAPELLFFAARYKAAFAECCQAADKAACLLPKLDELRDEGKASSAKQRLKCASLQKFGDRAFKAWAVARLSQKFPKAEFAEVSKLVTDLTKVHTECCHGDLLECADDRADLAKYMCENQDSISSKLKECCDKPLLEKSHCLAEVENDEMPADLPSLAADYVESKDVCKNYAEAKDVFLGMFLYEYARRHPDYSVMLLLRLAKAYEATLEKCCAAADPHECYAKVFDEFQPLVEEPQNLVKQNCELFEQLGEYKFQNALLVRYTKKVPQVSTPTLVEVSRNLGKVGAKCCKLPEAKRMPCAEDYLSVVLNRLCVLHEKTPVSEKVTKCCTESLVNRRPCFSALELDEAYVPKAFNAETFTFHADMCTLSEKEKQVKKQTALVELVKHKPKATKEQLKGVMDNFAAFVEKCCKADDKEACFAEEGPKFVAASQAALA
The experiment can be described thus: ELISA.

Sequence of Murine serum albumin (chain, as listed by the source): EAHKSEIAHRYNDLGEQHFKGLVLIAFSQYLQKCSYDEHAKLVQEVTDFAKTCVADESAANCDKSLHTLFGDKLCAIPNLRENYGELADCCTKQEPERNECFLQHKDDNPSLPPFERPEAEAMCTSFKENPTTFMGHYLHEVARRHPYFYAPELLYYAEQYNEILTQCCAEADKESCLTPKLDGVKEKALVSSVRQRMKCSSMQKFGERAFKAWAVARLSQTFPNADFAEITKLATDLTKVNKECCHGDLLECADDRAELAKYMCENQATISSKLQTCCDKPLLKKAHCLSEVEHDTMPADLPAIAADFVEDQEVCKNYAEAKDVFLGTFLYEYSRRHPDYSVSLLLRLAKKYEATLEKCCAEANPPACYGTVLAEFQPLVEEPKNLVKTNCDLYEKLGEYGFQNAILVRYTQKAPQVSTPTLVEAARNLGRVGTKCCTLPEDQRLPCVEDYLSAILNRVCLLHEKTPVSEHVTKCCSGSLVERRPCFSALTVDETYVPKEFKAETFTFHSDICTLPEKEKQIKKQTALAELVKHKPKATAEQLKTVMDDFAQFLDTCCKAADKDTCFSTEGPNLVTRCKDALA

B1: cx12596 (bispecific antibody)
heavy: EVQLVESGGGLEQPGGSLRLSCAGSGFTFRDYAMTWVRQAPGKGLEWVSSISGSGGNTYYADSVKGRFTISRDNSKNTLYLQMNSLRAEDTAVYYCAKDRLSITIRPRYYGLDVWGQGTTVTVSSASTKGPSVFPLAPCSRSTSESTAALGCLVKDYFPEPVTVSWNSGALTSGVHTFPAVLQSSGLYSLSSVVTVPSSSLGTKTYTCNVDHKPSNTKVDKRVGGSGGSEVQLVESGGGEVQPGGSLRLSCAASGFTFSTSGMVWVRQAPGKGLEWVSTISDDARITVYAESVKGRFTISRDNAKNTVYLQMNSLRAEDTAVYYCATYRAGSRIGSYEDYYRGQGTLVTVKPGGGGDKTHTCPPCPAPGGPSVFLFPPKPKDTLMISRTPEVTCVVVDVSHEDPEVKFNWYVDGVEVHNAKTKPREEQYNSTYRVVSVLTVLHQDWLNGKEYKCKVSNKALPAPIEKTISKAKGQPREPQVYTLPPSRDELTKNQVSLTCLVKGFYPSDIAVEWESNGQPENNYKTTPPVLDSDGSFFLYSKLTVDKSRWQQGNVFSCSVMHEALHNHYTQKSLSLSP
light: DIVMTQSPLSLPVTPGEPASISCRSSQSLLYSIGYNYLDWYLQKSGQSPQLLIYLGSNRASGVPDRFSGSGSGTDFTLKISRVEAEDVGFYYCMQALQTPYTFGQGTKLEIKRTVAAPSVFIFPPSDEQLKSGTASVVCLLNNFYPREAKVQWKVDNALQSGNSQESVTEQDSKDSTYSLSSTLTLSKADYEKHKVYACEVTHQGLSSPVTKSENRGEC
By Kd is commonly meant the concentration at which binding is half-saturated. B1: in the experiment with Human serum albumin, binding was put at a Kd of 0.0122 nM.

B2: cx12594 (bispecific antibody)
heavy: EVQLVESGGGLEQPGGSLRLSCAGSGFTFRDYAMTWVRQAPGKGLEWVSSISGSGGNTYYADSVKGRFTISRDNSKNTLYLQMNSLRAEDTAVYYCAKDRLSITIRPRYYGLDVWGQGTTVTVSSASTKGPSVFPLAPCSRSTSESTAALGCLVKDYFPEPVTVSWNSGALTSGVHTFPAVLQSSGLYSLSSVVTVPSSSLGTKTYTCNVDHKPSNTKVDKRVESKYGPPCPPCPAPEFLGGPSVFLFPPKPKDTLYISRTPEVTCVVVDVSQEDPEVQFNWYVDGVEVHNAKTKPREEQFNSTYRVVSVLTVLHQDWLNGKEYKCKVSNKGLPSSIEKTISKAKGQPREPQVYTLPPSQEEMTKNQVSLTCLVKGFYPSDIAVEWESNGQPENNYKTTPPVLDSDGSFFLYSRLTVDKSRWQEGNVFSCSVVHEALHNHYTQKSLSLSLGGSGGSEVQLVESGGGEVQPGGSLRLSCAASGFTFSTSGMVWVRQAPGKGLEWVSTISDDARITVYAESVKGRFTISRDNAKNTVYLQMNSLRAEDTAVYYCATYRAGSRIGSYEDYYRGQGTLVTVKP
light: DIVMTQSPLSLPVTPGEPASISCRSSQSLLYSIGYNYLDWYLQKSGQSPQLLIYLGSNRASGVPDRFSGSGSGTDFTLKISRVEAEDVGFYYCMQALQTPYTFGQGTKLEIKRTVAAPSVFIFPPSDEQLKSGTASVVCLLNNFYPREAKVQWKVDNALQSGNSQESVTEQDSKDSTYSLSSTLTLSKADYEKHKVYACEVTHQGLSSPVTKSENRGEC
Regarding B2, the Kd with Human serum albumin was found to be 0.118 nM.

B3: cx12595 (bispecific antibody)
heavy: EVQLVESGGGLEQPGGSLRLSCAGSGFTFRDYAMTWVRQAPGKGLEWVSSISGSGGNTYYADSVKGRFTISRDNSKNTLYLQMNSLRAEDTAVYYCAKDRLSITIRPRYYGLDVWGQGTTVTVSSASTKGPSVFPLAPCSRSTSESTAALGCLVKDYFPEPVTVSWNSGALTSGVHTFPAVLQSSGLYSLSSVVTVPSSSLGTKTYTCNVDHKPSNTKVDKRVGGSGGSEVQLVESGGGEVQPGGSLRLSCAASGFTFSTSGMVWVRQAPGKGLEWVSTISDDARITVYAESVKGRFTISRDNAKNTVYLQMNSLRAEDTAVYYCATYRAGSRIGSYEDYYRGQGTLVTVKPGGGGESKYGPPCPPCPAPEFLGGPSVFLFPPKPKDTLYISRTPEVTCVVVDVSQEDPEVQFNWYVDGVEVHNAKTKPREEQFNSTYRVVSVLTVLHQDWLNGKEYKCKVSNKGLPSSIEKTISKAKGQPREPQVYTLPPSQEEMTKNQVSLTCLVKGFYPSDIAVEWESNGQPENNYKTTPPVLDSDGSFFLYSRLTVDKSRWQEGNVFSCSVVHEALHNHYTQKSLSLSLG
light: DIVMTQSPLSLPVTPGEPASISCRSSQSLLYSIGYNYLDWYLQKSGQSPQLLIYLGSNRASGVPDRFSGSGSGTDFTLKISRVEAEDVGFYYCMQALQTPYTFGQGTKLEIKRTVAAPSVFIFPPSDEQLKSGTASVVCLLNNFYPREAKVQWKVDNALQSGNSQESVTEQDSKDSTYSLSSTLTLSKADYEKHKVYACEVTHQGLSSPVTKSENRGEC
For the molecule B3, in the experiment with Human serum albumin, the Kd was found to be 0.0326 nM.

B4: cx12583 (VHH)
chain: GGGGDKTHTCPPCPAPGGPSVFLFPPKPKDTLMISRTPEVTCVVVDVSHEDPEVKFNWYVDGVEVHNAKTKPREEQYNSTYRVVSVLTVLHQDWLNGKEYKCKVSNKALPAPIEKTISKAKGQPREPQVYTLPPSRDELTKNQVSLTCLVKGFYPSDIAVEWESNGQPENNYKTTPPVLDSDGSFFLYSKLTVDKSRWQQGNVFSCSVMHEALHNHYTQKSLSLSPGSGGGSEVQLVESGGGEVQPGGSLRLSCAASGFTFSTSGMVWVRQAPGKGLEWVSTISDDARITVYAESVKGRFTISRDNAKNTVYLQMNSLRAEDTAVYYCATYRAGSRIGSYEDYYRGQGTLVTVKP
Take B4: binding with Human serum albumin was put at a Kd of 0.126 nM.

B5: cy (other)
chain: DTHKSEVAHRFKDLGEEHFKGLVLVAFSQYLQQCPFEEHVKLVNEVTEFAKTCVADESAENCDKSLHTLFGDKLCTVATLRETYGEMADCCAKQEPERNECFLQHKDDNPNLPPLVRPEVDVMCTAFHDNEATFLKKYLYEVARRHPYFYAPELLFFAARYKAAFAECCQAADKAACLLPKLDELRDEGKASSAKQRLKCASLQKFGDRAFKAWAVARLSQKFPKAEFAEVSKLVTDLTKVHTECCHGDLLECADDRADLAKYMCENQDSISSKLKECCDKPLLEKSHCLAEVENDEMPADLPSLAADYVESKDVCKNYAEAKDVFLGMFLYEYARRHPDYSVMLLLRLAKAYEATLEKCCAAADPHECYAKVFDEFQPLVEEPQNLVKQNCELFEQLGEYKFQNALLVRYTKKVPQVSTPTLVEVSRNLGKVGAKCCKLPEAKRMPCAEDYLSVVLNRLCVLHEKTPVSEKVTKCCTESLVNRRPCFSALELDEAYVPKAFNAETFTFHADMCTLSEKEKQVKKQTALVELVKHKPKATKEQLKGVMDNFAAFVEKCCKADDKEACFAEEGPKFVAASQAALA
Take B5: the Kd is 0.203 nM with 4A01v5; 0.247 nM in the experiment with 4A01v4; 0.338 nM with 4A01v3; 0.225 nM with 4A01v6; 0.157 nM with 4A01v1; 0.118 nM with 4A01v3-7. For the same molecule, the Kd with 4A01v3-8 amounted to 0.147 nM; in the experiment with 4A01v3-3, 0.142 nM; with 4A01v3-4 it was 0.181 nM; in the experiment with 4A01v9, 0.117 nM; in the experiment with 4A01v3-1, 0.127 nM; with 4A01v3-5, 0.126 nM.

B6: cx5009, hz4A01v51 VHH-hIgG1-xELL-NNT-Fc (VHH)
VHH: EVQLVESGGGEVQPGGSLRLSCAASGFTFSTSGMVWVRQAPGKGLEWVSTISDDARITVYAESVKGRFTISRDNAKNTVYLQMNSLRAEDTAVYYCATYRAGSRIGSYEDYYRGQGTLVTVKP
As to B6, the values for the Kd (in the experiment with Rat serum albumin; with Murine serum albumin; in [1]) were 0.234 nM, 0.207 nM and 0.189 nM, respectively.

B7: cx12584 (VHH)
chain: GGGGDKTHTCPPCPAPGGPSVFLFPPKPKDTLMISRTPEVTCVVVDVSHEDPEVKFNWYVDGVEVHNAKTKPREEQYNSTYRVVSVLTVLHQDWLNGKEYKCKVSNKALPAPIEKTISKAKGQPREPQVYTLPPSRDELTKNQVSLTCLVKGFYPSDIAVEWESNGQPENNYKTTPPVLDSDGSFFLYSKLTVDKSRWQQGNVFSCSVMHEALHNHYTQKSLSLSPGGGSGGGSGGGSEVQLVESGGGEVQPGGSLRLSCAASGFTFSTSGMVWVRQAPGKGLEWVSTISDDARITVYAESVKGRFTISRDNAKNTVYLQMNSLRAEDTAVYYCATYRAGSRIGSYEDYYRGQGTLVTVKP
For B7, in the experiment with Human serum albumin, the Kd turned out to be 0.0813 nM.
